Biological target: MDA5ΔN (residues 287–1025) (human) (UniProt Q9BYX4)
Sequence (Q9BYX4 287-1025, stated change not applied): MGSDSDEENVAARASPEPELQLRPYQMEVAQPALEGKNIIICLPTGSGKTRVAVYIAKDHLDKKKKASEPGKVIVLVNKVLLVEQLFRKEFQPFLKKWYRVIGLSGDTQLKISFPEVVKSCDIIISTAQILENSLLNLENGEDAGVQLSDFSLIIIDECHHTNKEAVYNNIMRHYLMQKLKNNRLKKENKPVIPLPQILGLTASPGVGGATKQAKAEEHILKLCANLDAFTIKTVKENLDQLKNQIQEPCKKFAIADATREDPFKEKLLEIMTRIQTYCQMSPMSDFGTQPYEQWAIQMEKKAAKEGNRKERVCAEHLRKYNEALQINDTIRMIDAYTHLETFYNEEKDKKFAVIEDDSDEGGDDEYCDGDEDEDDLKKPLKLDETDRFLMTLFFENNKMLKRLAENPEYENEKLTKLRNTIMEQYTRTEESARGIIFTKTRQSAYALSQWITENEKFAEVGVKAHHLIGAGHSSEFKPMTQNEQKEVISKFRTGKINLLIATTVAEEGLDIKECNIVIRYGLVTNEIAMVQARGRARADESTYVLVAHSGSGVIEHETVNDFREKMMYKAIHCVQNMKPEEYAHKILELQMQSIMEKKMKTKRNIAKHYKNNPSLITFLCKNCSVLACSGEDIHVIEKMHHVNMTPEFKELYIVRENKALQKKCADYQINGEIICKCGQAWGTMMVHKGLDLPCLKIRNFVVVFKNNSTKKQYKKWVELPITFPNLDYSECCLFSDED

B1: LGP2(E116A, E117A, D603A) (natural protein)
chain: MELRSYQWEVIMPALEGKNIIIWLPTGAGKTRAAAYVAKRHLETVDGAKVVVLVNRVHLVTQHGEEFRRMLDGRWTVTTLSGDMGPRAGFGHLARCHDLLICTAELLQMALTSPEAAEHVELTVFSLIVVDECHHTHKDTVYNVIMSQYLELKLQRAQPLPQVLGLTASPGTGGASKLDGAINHVLQLCANLDTWCIMSPQNCCPQLQEHSQQPCKQYNLCHRRSQDPFGDLLKKLMDQIHDHLEMPELSRKFGTQMYEQQVVKLSEAAALAGLQEQRVYALHLRRYNDALLIHDTVRAVDALAALQDFYHREHVTKTQILCAERRLLALFDDRKNELAHLATHGPENPKLEMLEKILQRQFSSSNSPRGIIFTRTRQSAHSLLLWLQQQQGLQTVDIRAQLLIGAGNSSQSTHMTQRDQQEVIQKFQDGTLNLLVATSVAEEGLDIPHCNVVVRYGLLTNEISMVQARGRARADQSVYAFVATEGSRELKRELINEALETLMEQAVAAVQKMDQAEYQAKIRDLQQAALTKRAAQAAQRENQRQQFPVEHVQLLCINCMVAVGHGSDLRKVEGTHHVNVNPNFSNYYNVSRDPVVINKVFKAWKPGGVISCRNCGEVWGLQMIYKSVKLPVLKVRSMLLETPQGRIQAKKWSRVPFSVPDFDFLQHCAENLSDLSLD
proportion of MDA5ΔN translocation events that were stopped (immobile) on 11.6-kb dsRNA with LGP2(intermut), smTIRF: 23%

Source: publication PMC12589613
